According to patent publication US11957762B2, “Immune tolerant and non-immune tolerant elastin-like recombinant peptides and methods of use” (University of Utah Research Foundation, priority 2015, dated 2024):
“And” between values parts separate entries of the source, which are not always exact repeats. Equal values may be shown once.

Columns and labels:
[1] = Thermally-induced reversible phase transition (turbidity OD350 vs temperature); type: physicochemical; details: for Tt (cooling) / Tt (heating): 25 μM in H2O
From the text: Characterization of thermally-induced, reversible, inverse phase transition of iTEPs and the iTEPB-iTEPA-pOVA fusion. The phase transitions of iTEP or iTEP fusions were characterized by turbidity changes of sample solutions as a function of temperature. Specifically, the optical density at 350 nm (OD350) of a sample solution was monitored using an UV-visible spectrophotometer equipped with a multi-cell thermoelectric temperature controller (Cary 300, Varian Instruments, Walnut Creek, CA) while the solution was heated from 20° C. to 80° C. and then cooled to 20° C. at a rate of 1° C./min. The maximum first derivative of the turbidity curve of a sample was identified. The transition temperature (Tt) of the sample is the temperature that corresponds to the maximum derivative.

DC2.4 cells = experiment: Presentation of the CTL epitope […] by DCs (flow cytometry); type: cell-based, murine; details: 16 h incubation with DC2.4 cells
Protocol: Presentation of the CTL epitope, […], by DCs. Cells of a murine DC line (DC2.4, a gift from K. Rock)^(32) were plated at 2.5×10^5/500 μL/well in 24-well plates. 500 μL of OVA, […] peptide (SEQ ID NO: 22), or iTEPB-iTEPA-pOVA NP (SEQ ID NO: 56) (iTEP-pOVA NP hereafter) were dissolved in cell culture media and added to the wells containing DCs. The cells were further cultured for 16 hrs. at 37° C. with 5% CO2 before they were collected and washed with PBS. The MHC class I complex, H-2kb/[…] presented on DC surface was stained with a PE-tagged monoclonal antibody 25-D1.16 (Biolegend, 1:100 dilution) and quantified with flow cytometry (5×10^4 events collected per sample). The data are presented as MFI normalized to the MFI of untreated DC2.4 cells.
Presentation of […] epitope vaccine by DCs. The presentation was studied as previously described (Cho et al., J Drug Target, 2015; p 1-12). The concentration of iTEP-vaccine fusions (NPs) used in this experiment was 5 μM. The results of presentation were shown as mean fluorescence intensity (MFI) of 5000 treated, live cells in a given treatment, which were normalized to the MFI value of untreated DC2.4 cells.

C57BL/6 mice = experiment: In vivo CTL response by ELISPOT IFN-γ assay; parameters: species or system mouse; details: subcutaneous immunization twice, 2 nmol SIINFEKL equivalents per mouse with IFA
From the text: in vivo CTL response by ELISPOT IFN-γ assay. C57BL/6 mice were immunized subcutaneously with each immunogen (2 nmol […] equivalents per mouse) together with incomplete Freunds Adjuvants (IFA; Sigma, USA) at their left flanks. The immunization was repeated at their right flanks 1 week later. At 10 days after the second immunization, mice were sacrificed, and the spleens were harvested. The spleens of the sacrificed mice were teased into single-cell suspensions and filtered through nylon mesh […]. Red blood cells were lysed by Ammonium-Chloride-Potassium (ACK) lysing buffer. The washed and resuspended single cells were counted using Contess™ Automated Cell Counter (Invitrogen, USA). Splenocytes (8×10^6/mL) were incubated in RPMI-1640 medium supplemented with 10% heat inactivated fetal calf serum, 2 mM glutamine, 100 units/mL penicillin and 100 μg/mL streptomycin (Invitrogen, USA), in a 14 mL polypropylene tissue culture tube for 48 hours, with or without […] peptide (SEQ ID NO: 22) (2.5 μg/mL). The cells were then washed and recounted. 2×10^5 live cells in 100 μL medium were then loaded into wells of 96-well Filtration plates (Millipore, USA) coated with […] of capture anti-mouse IFN-γ mAb (Clone: R4-6A2, Biolegend, USA). Triplicates were set up for each condition. Cells were discarded after 24 hours of culture and the wells were incubated with […] of detectionbiotinylated, anti-mouse IFN-γ mAb overnight (Clone: XMG1.2-Biotin, Biolegend, USA). After the unbound antibodies were washed away from the wells, the bound antibodies were detected using horseradish peroxidase (HRP Avidin, Biolegend, USA) together with 3-amino-9-ethyl-carbazole (AEC) substrate (Sigma, USA). The membranes on the bottom of the wells were peeled off, and color spots on the membrane were scanned. The spots were automatically counted using ImageJ software.
Animal immunization. C57BL/6 mice were immunized by the subcutaneous injection of 2 nmol iTEP NP vaccines and incomplete Freunds Adjuvants (IFA; Sigma, USA) at their left flanks. Immunization was repeated at their right flanks after 1 week. On day 10 after the second immunization, mice were sacrificed, and the spleens were harvested.

B3Z cells = experiment: B3Z CD8+ T cell hybridoma activation assay; type: cell-based; details: DC2.4 cells pre-incubated with antigen
Protocol: B3Z CD8+ T cell hybridoma activation assay. B3Z cells (a gift from N. Shastri) are a CD8+ T-cell hybridoma engineered to secrete β-galactosidase when their T-cell receptors are engaged with an […]:H2K^b complex.^(33) To do this assay, 1×10^5 DC2.4 cells/well were set in 96-well plates. OVA, […] peptide (SEQ ID NO: 22), and iTEP-pOVA NP (SEQ ID NO: 56) at indicated concentrations were loaded into the cell culture for 16 hours and then washed away. 1×10^5 B3Z cells/well were added to the DC2.4 cell culture and co-cultured with DC2.4 cells for 24 hours. The cells were washed with PBS before 100 μL of lysis buffer (PBS with 100 mM 2-mercaptoethanol, 9 mM MgCl2, 0.125% NP-40) together with 0.15 mM chlorophenol red β-galactoside were added into the wells. After the plates were incubated at 37° C. for 4 hours, the reaction was stopped with 50 μL/well of 15 mM EDTA and 300 mM glycine. The OD at 570 nm was measured and the OD at 630 nm was used as reference. The OD was used as an indicator as activation status of B3Z cells.
Activation of B3Z hybridoma (CD8+T) cells. This assay was done with a protocol described previously (Cho et al., J Drug Target, 2015; p 1-12).

[2] = Hydrodynamic diameter by dynamic light scattering (DLS); type: physicochemical
Protocol: Characterization of the size of iTEPB-pOVA and iTEPB-iTEPA-pOVA fusions. The particle size distribution of the iTEP fusions was determined by dynamic light scattering (DLS) using a Zetasizer Nano-ZS instrument (Malvern Instruments, Malvern, UK) as previously described.^(29) The fusions were prepared at 5 μM and 25 μM in PBS and equilibrated at 37° C. for the measurement. The reported results represented the average particle size by number.
Dynamic light scattering (DLS) measurement. The measurement was carried out as previously described. iTEP, iTEP-MPBH-ABA-Sali conjugate, or PTX NP were measured at 25 μM in PBS at 37° C. using a Malvern Zetasizer Nano system (Malvern, Chester County, PA, USA).
Characterization of hydrodynamic diameters of iTEP-vaccine fusions. Hydrodynamic diameters of iTEP-vaccine fusions were determined by dynamic light scattering (DLS) using a Zetasizer Nano-ZS instrument (Malvern Instruments, Malvern, UK) as previously described (Zhao et al., Mol Pharm, 2014; 11(8):2703-12). The samples were resuspended at concentrations of 5, 25, 50, and 100 μM in PBS and sat at room temperature overnight before measurement. Some samples were kept in 5% C02 at 37° C. for 16 h before DLS measurement. Hydrodynamic diameter results of the sample of 5 μM concentration were reported because they were not affected by the used sample concentrations. Hydrodynamic diameters were presented using the size-by-number distribution approach. Z-average values and sizes-by-intensity data, however, were also reported.

G(VPGLGAGAG)96GG [iTEPD]
Relative Hydrophobicity [1]: High
(heating) Tt ([1]; 5 μM): 42.3 °C
Tt (cooling) [1]: 35.20 ± 0.57 °C
Tt (heating) [1]: 38.6 °C and 38.60 ± 1.20 °C

SIINFEKL [reference compound]
presentation of SIINFEKL by DCs (DC2.4 cells): much stronger
SIINFEKL-restricted activated splenocytes (INF-γ ELISPOT) (C57BL/6 mice): 60 spots per million seeded splenocytes
activation of B3Z cells (B3Z cells): highest activity among all treatments

B1: NH2-(GAGVPG)70-(…)8-COOH (protein)
chain: GGAGVPGGAGVPGGAGVPGGAGVPGGAGVPGGAGVPGGAGVPGGAGVPGGAGVPGGAGVPGGAGVPGGAGVPGGAGVPGGAGVPGGAGVPGGAGVPGGAGVPGGAGVPGGAGVPGGAGVPGGAGVPGGAGVPGGAGVPGGAGVPGGAGVPGGAGVPGGAGVPGGAGVPGGAGVPGGAGVPGGAGVPGGAGVPGGAGVPGGAGVPGGAGVPGGAGVPGGAGVPGGAGVPGGAGVPGGAGVPGGAGVPGGAGVPGGAGVPGGAGVPGGAGVPGGAGVPGGAGVPGGAGVPGGAGVPGGAGVPGGAGVPGGAGVPGGAGVPGGAGVPGGAGVPGGAGVPGGAGVPGGAGVPGGAGVPGGAGVPGGAGVPGGAGVPGGAGVPGGAGVPGGAGVPGGAGVPGGAGVPGGAGVPGGAGVPGGAGVPGGGVLPGVGGVLPGVGGVLPGVGGVLPGVGGVLPGVGGVLPGVGGVLPGVGGVLPGVGGVLPGVGGVLPGVGGVLPGVGGVLPGVGGVLPGVGGVLPGVGGVLPGVGGVLPGVGGVLPGVGGVLPGVGGVLPGVGGVLPGVGGVLPGVGGVLPGVGGVLPGVGGVLPGVGGVLPGVGGVLPGVGGVLPGVGGVLPGVGGVLPGVGGVLPGVGGVLPGVGGVLPGVGGVLPGVGGVLPGVGGVLPGVGGVLPGVGGVLPGVGGVLPGVGGVLPGVGGVLPGVGGVLPGVGGVLPGVGGVLPGVGGVLPGVGGVLPGVGGVLPGVGGVLPGVGGVLPGVGGVLPGVGGVLPGVGGVLPGVGGVLPGVGGVLPGVGGVLPGVGGVLPGVGGVLPGVGG
hydrodynamic diameter (DLS) ([2]; 25 μM in PBS at 37° C.): 6.63±1.25 nm

B2: G(GVLPGVG)28GG (protein)
chain: GGAGVPGGAGVPGGAGVPGGAGVPGGAGVPGGAGVPGGAGVPGGAGVPGGAGVPGGAGVPGGAGVPGGAGVPGGAGVPGGAGVPGGAGVPGGAGVPGGAGVPGGAGVPGGAGVPGGAGVPGGAGVPGGAGVPGGAGVPGGAGVPGGAGVPGGAGVPGGAGVPGGAGVPGGAGVPGGAGVPGGAGVPGGAGVPGGAGVPGGAGVPGGAGVPGGAGVPGGAGVPGGAGVPGGAGVPGGAGVPGGAGVPGGAGVPGGAGVPGGAGVPGGAGVPGGAGVPGGAGVPGGAGVPGGAGVPGGAGVPGGAGVPGGAGVPGGAGVPGGAGVPGGAGVPGGAGVPGGAGVPGGAGVPGGAGVPGGAGVPGGAGVPGGAGVPGGAGVPGGAGVPGGAGVPGGAGVPGGAGVPGGAGVPGGAGVPGGAGVPGGG
Relative Hydrophobicity [1]: High
Tt (cooling) [1]: 29.70 ± 0.05 °C
Tt (heating) [1]: 33.30 ± 0.09 °C

B3: G(GAGVPG)70GG (protein)
chain: GVPGFGAGAGVPGFGAGAGVPGFGAGAGVPGFGAGAGVPGFGAGAGVPGFGAGAGVPGFGAGAGVPGFGAGAGVPGFGAGAGVPGFGAGAGVPGFGAGAGVPGFGAGAGVPGFGAGAGVPGFGAGAGVPGFGAGAGVPGFGAGAGVPGFGAGAGVPGFGAGAGVPGFGAGAGVPGFGAGAGVPGFGAGAGGG
Relative Hydrophobicity [1]: Low
temperature of coacervate formation ([1]; in H2O, tested temperature range 20-80° C.): did not form coacervates

B4: ovalbumin (protein)
chain: GSIGAASMEFCFDVFKELKVHHANENIFYCPIAIMSALAMVYLGAKDSTRTQINKVVRFDKLPGFGDSIEAQCGTSVNVHSSLRDILNQITKPNDVYSFSLASRLYAEERYPILPEYLQCVKELYRGGLEPINFQTAADQARELINSWVESQTNGIIRNVLQPSSVDSQTAMVLVNAIVFKGLWEKAFKDEDTQAMPFRVTEQESKPVQMMYQIGLFRVASMASEKMKILELPFASGTMSMLVLLPDEVSGLEQLESIINFEKLTEWTSSNVMEERKIKVYLPRMKMEEKYNLTSVLMAMGITDVFSSSANLSGISSAESLKISQAVHAAHAEINEAGREVVGSAEAGVDAASVSEEFRADHPFLFCIKHIATNAVLFFGRCVSP
notes: positive control protein antigen
SIINFEKL-restricted activated splenocytes (INF-γ ELISPOT) (C57BL/6 mice): 61 spots per million seeded splenocytes

B5: iTEPB-pOVA: a fusion of the hydrophilic iTEPB and the vaccine, soluble (SEQ ID NO: 57) (protein)
chain: GAGVPGGAGVPGGAGVPGGAGVPGGAGVPGGAGVPGGAGVPGGAGVPGGAGVPGGAGVPGGAGVPGGAGVPGGAGVPGGAGVPGGAGVPGGAGVPGGAGVPGGAGVPGGAGVPGGAGVPGGAGVPGGAGVPGGAGVPGGAGVPGGAGVPGGAGVPGGAGVPGGAGVPGGAGVPGGAGVPGGAGVPGGAGVPGGAGVPGGAGVPGGAGVPGGAGVPGGAGVPGGAGVPGGAGVPGGAGVPGGAGVPGGAGVPGGAGVPGGAGVPGGAGVPGGAGVPGGAGVPGGAGVPGGAGVPGGAGVPGGAGVPGGAGVPGGAGVPGGAGVPGGAGVPGGAGVPGGAGVPGGAGVPGGAGVPGGAGVPGGAGVPGGAGVPGGAGVPGGAGVPGGAGVPGGAGVPGGAGVPGGAGVPGGAGVPGGAGVPGCGGGGGGGGCGGGGGGGGCGGGGGGGGCGGGGGGGGCGGGGGGGGCGGGGGGGGCGGGGGGGGCGGGGGGGG
mean diameter / size (DLS) ([2]; 25 μM in PBS, 37° C., by number): less than 10 nm
